Legend:
[1] = tested on: HCV ORFs (Gal4-DB fusions); type: binding, HCV genotype 1b, isolate con1; settings: human protein listed by gene symbol; the value names the HCV protein it interacts with
Method: (§1) HCV ORFs were transferred from pDONR223 into bait vector (pPC97) to be expressed as Gal4-DB fusions in yeast. Two different screening methods were used (IMAP1 and IMAP2). Both for IMAP1 and IMAP2 strategies and because bait constructs sometimes self-transactivate reporter genes, SD-L-H culture medium were supplemented with 3-aminotriazole (3-AT). Appropriate concentrations of this drug were determined by growing bait strains on SD-L-H medium supplemented with increasing concentrations of 3-AT. […] For IMAP1, bait vectors were introduced in MAV203 yeast strain and both human spleen and foetal brain AD-cDNA libraries (Invitrogen) were screened by transformation as described (7). All primary positive clones (selected on SD-W-L-H+3-AT) were tested by further phenotypic assay using two additional reporter genes: LacZ (X-Gal colorimetric assay) and URA3 (growth assay on 5-FOA supplemented medium). […] AD-cDNA were PCR-amplified and inserts were sequenced to identify interactors. IMAP2 screens were performed by yeast mating, using AH109 and Y187 yeast strains (Clontech (8)). Bait vectors were transformed into AH109 (bait strain) and human spleen and foetal brain AD-cDNA libraries (Invitrogen) were transformed into Y187 (prey strain). Single bait strains were mated with prey strains then diploids were plated on SD-W-L-H+3-AT medium. Positive clones were maintained onto this selective medium for 15 days to eliminate any contaminant AD-cDNA plasmid (9). AD-cDNAs were PCR amplified and inserts were sequenced.
(§2) We have developed a bioinformatic pipeline that assigns each IST to its native human genome transcript. […] Gal4 motif was searched (last 87 bases of GAL4-AD), sequences downstream of this motif were translated into peptides and aligned using BLASTP against the REFSEQ (http://www.ncbi.nlm.nih.gov/RefSeq/) human protein sequence database (release 04/2007). Low-confidence alignments (E value>10^−10, identity <80%) and premature STOP codon containing sequences were eliminated. Only in-frame proteins and high quality sequences were further considered

[2] = biological target: T1, HCV ORFs (Gal4-DB fusions) (Hepatitis C virus genotype 1b, UniProt Q9WMX2); type: binding, HCV genotype 1b, isolate con1; settings: HCV protein NS3 as bait; human protein as prey
T1 construct: expressed in transfected cells; host or cells: Saccharomyces cerevisiae MAV203 (IMAP1) / AH109 (IMAP2)
Method: as §1, §2

HCV proteins = biological target: T2, HCV proteins (Hepatitis C virus genotype 1b, UniProt Q9WMX2); assay: Validation by Y2H pairwise matrices; type: binding; settings: validation of interaction with HCV protein NS3;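 note: yeast two-hybrid pairwise tests of interactions first found in Y2H screens of HCV bait proteins against human cDNA libraries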
T2 construct: expressed in transfected cells
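Throughout, for IMAP Y2H IMAP1 (number of IST): yeast two-hybrid screens using HCV genotype 1b proteins fused to Gal4-DB as baits against prey cDNA libraries from human spleen and foetal brain, IMAP1 via transformation and IMAP2 via mating.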
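Throughout, for Interaction with viral protein: yeast two-hybrid screens using HCV genotype 1b proteins fused to Gal4-DB as baits against prey cDNA libraries from human spleen and foetal brain, IMAP1 via transformation and IMAP2 via mating.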

T1 sequence (Q9WMX2 1027-1657): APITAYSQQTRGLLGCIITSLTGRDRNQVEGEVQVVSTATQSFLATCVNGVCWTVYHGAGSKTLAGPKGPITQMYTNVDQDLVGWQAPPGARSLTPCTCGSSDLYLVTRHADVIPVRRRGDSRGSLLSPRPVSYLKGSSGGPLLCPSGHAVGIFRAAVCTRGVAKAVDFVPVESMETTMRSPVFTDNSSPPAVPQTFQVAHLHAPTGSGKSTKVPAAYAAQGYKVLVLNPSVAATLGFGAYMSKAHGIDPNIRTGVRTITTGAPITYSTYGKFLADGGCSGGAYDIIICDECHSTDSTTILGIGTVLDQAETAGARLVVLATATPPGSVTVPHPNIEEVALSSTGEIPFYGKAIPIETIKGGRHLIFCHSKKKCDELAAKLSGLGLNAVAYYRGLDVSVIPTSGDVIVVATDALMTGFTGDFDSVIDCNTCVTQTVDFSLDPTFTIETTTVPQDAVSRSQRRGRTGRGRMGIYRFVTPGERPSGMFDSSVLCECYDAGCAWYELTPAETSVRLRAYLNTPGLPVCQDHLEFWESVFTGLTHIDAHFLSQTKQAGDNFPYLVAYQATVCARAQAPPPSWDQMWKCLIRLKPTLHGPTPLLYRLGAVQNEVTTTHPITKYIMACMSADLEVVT
T2 sequence (Q9WMX2 1027-1657): as above

Row | Molecule | Interaction with viral protein [1] | IMAP Y2H IMAP1 (number of IST) [2] | Y2H matrices (HCV proteins)
1 | PDLIM5 (protein, UniProt Q96HC4 2-596, looked up) PDZ and LIM domain protein 5: SNYSVSLVGPAPWGFRLQGGKDFNMPLTISSLKDGGKAAQANVRIGDVVLSIDGINAQGMTHLEAQNKIKGCTGSLNMTLQRASAAPKPEPVPVQKGEPKEVVKPVPITSPAVSKVTSTNNMAYNKAPRPFGSVSSPKVTSIPSPSSAFTPAHATTSSHASPSPVAAVTPPLFAASGLHANANLSADQSPSALSAGKTAVNVPRQPTVTSVCSETSQELAEGQRRGSQGDSKQQNGPPRKHIVERYTEFYHVPTHSDASKKRLIEDTEDWRPRTGTTQSRSFRILAQITGTEHLKESEADNTKKANNSQEPSPQLASSVASTRSMPESLDSPTSGRPGVTSLTAAAAFKPVGSTGVIKSPSWQRPNQGVPSTGRISNSATYSGSVAPANSALGQTQPSDQDTLVQRAEHIPAGKRTPMCAHCNQVIRGPFLVALGKSWHPEEFNCAHCKNTMAYIGFVEEKGALYCELCYEKFFAPECGRCQRKILGEVISALKQTWHVSCFVCVACGKPIRNNVFHLEDGEPYCETDYYALFGTICHGCEFPIEAGDMFLEALGYTWHDTCFVCSVCCESLEGQTFFSKKDKPLCKKHAHSVNF | NS3 | 1 | +
2 | PICK1 (protein, UniProt Q9NRD5 1-415, looked up) PRKCA-binding protein: MFADLDYDIEEDKLGIPTVPGKVTLQKDAQNLIGISIGGGAQYCPCLYIVQVFDNTPAALDGTVAAGDEITGVNGRSIKGKTKVEVAKMIQEVKGEVTIHYNKLQADPKQGMSLDIVLKKVKHRLVENMSSGTADALGLSRAILCNDGLVKRLEELERTAELYKGMTEHTKNLLRAFYELSQTHRAFGDVFSVIGVREPQPAASEAFVKFADAHRSIEKFGIRLLKTIKPMLTDLNTYLNKAIPDTRLTIKKYLDVKFEYLSYCLKVKEMDDEEYSCIALGEPLYRVSTGNYEYRLILRCRQEARARFSQMRKDVLEKMELLDQKHVQDIVFQLQRLVSTMSKYYNDCYAVLRDADVFPIEVDLAHTTLAYGLNQEEFTDGEEEEEEEDTAAGEPSRDTRGAAGPLDKGGSWCDS | NS3 | 3 | +
3 | PKNOX1 (protein, UniProt P55347 1-436, looked up) Homeobox protein PKNOX1: MMATQTLSIDSYQDGQQMQVVTELKTEQDPNCSEPDAEGVSPPPVESQTPMDVDKQAIYRHPLFPLLALLFEKCEQSTQGSEGTTSASFDVDIENFVRKQEKEGKPFFCEDPETDNLMVKAIQVLRIHLLELEKVNELCKDFCSRYIACLKTKMNSETLLSGEPGSPYSPVQSQQIQSAITGTISPQGIVVPASALQQGNVAMATVAGGTVYQPVTVVTPQGQVVTQTLSPGTIRIQNSQLQLQLNQDLSILHQDDGSSKNKRGVLPKHATNVMRSWLFQHIGHPYPTEDEKKQIAAQTNLTLLQVNNWFINARRRILQPMLDSSCSETPKTKKKTAQNRPVQRFWPDSIASGVAQPPPSELTMSEGAVVTITTPVNMNVDSLQSLSSDGATLAVQQVMMAGQSEDESVDSTEEDAGALAPAHISGLVLENSDSLQ | NS3 | 1 | +
4 | PCYT2 (protein, UniProt Q99447 1-389, looked up) Ethanolamine-phosphate …: MIRNGRGAAGGAEQPGPGGRRAVRVWCDGCYDMVHYGHSNQLRQARAMGDYLIVGVHTDEEIAKHKGPPVFTQEERYKMVQAIKWVDEVVPAAPYVTTLETLDKYNCDFCVHGNDITLTVDGRDTYEEVKQAGRYRECKRTQGVSTTDLVGRMLLVTKAHHSSQEMSSEYREYADSFGKCPGGRNPWTGVSQFLQTSQKIIQFASGKEPQPGETVIYVAGAFDLFHIGHVDFLEKVHRLAERPYIIAGLHFDQEVNHYKGKNYPIMNLHERTLSVLACRYVSEVVIGAPYAVTAELLSHFKVDLVCHGKTEIIPDRDGSDPYQEPKRRGIFRQIDSGSNLTTDLIVQRIITNRLEYEARNQKKEAKELAFLEAARQQAAQPLGERDGDF | NS3 | 1 | +

From patent US20110091994A1, “Methods for Screening Compounds for Treating and/or Preventing an Hepatitis C Virus Infection” (priority 2008, published 2011)
